Measured values published in patent US20140134132A1.

Molecular target: organic anion transporting polypeptide 1B1 (UniProt Q9Y6L6)
Assay: cell-based or functional assay

Chain of organic anion transporting polypeptide 1B1 (Q9Y6L6 whole entry): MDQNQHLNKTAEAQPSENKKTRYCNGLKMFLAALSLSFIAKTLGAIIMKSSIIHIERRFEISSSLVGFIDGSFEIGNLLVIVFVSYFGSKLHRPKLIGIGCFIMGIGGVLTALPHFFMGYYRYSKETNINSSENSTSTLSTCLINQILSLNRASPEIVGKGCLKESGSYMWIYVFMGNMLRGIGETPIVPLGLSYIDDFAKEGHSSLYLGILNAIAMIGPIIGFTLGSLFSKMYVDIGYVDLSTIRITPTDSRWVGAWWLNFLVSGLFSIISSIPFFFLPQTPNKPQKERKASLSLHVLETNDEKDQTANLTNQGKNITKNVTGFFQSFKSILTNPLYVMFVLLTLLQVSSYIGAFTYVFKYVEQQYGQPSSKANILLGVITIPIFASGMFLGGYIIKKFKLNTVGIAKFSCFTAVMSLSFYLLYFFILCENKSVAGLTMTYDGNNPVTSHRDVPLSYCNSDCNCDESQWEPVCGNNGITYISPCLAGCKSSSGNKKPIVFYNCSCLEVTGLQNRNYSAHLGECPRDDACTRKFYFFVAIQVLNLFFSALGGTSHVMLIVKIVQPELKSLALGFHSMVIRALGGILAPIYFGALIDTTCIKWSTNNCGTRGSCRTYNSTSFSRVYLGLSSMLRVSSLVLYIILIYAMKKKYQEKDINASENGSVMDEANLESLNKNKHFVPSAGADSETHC

OATP1B13 IC50 [µM]	Substance
4.8	3-[D-Ala]-4-[(2S,3R)-3-methyl-2-(methylamino)-4-(4-(methylsulfonyl)piperazin-1-yl)butanoyl]-cyclosporin (peptide)
8.2	3-[D-Ala]-4-[(2S,3R)-3-methyl-2-(methylamino)-4-morpholinobutanoyl]-cyclosporin (peptide)
2.1	3-[D-Ala]-4-[(2S,3R)-5-(4-cyclobutylpiperazin-1-yl)-3-methyl-2-(methylamino)pentanoyl]-cyclosporin (peptide)
2.3	3-[D-Ala]-4-[(2S,3R)-5-methoxy-3-methyl-2-(methylamino)pentanoyl]-cyclosporin (peptide)
2.2	3-[D-Ala]-4-[(2S,3R)-6-(4-(2-methoxyethyl)piperazin-1-yl)-3-methyl-2-(methylamino)hexanoyl]-cyclosporin (peptide)
2.6	3-[D-Ala]-4-[(2S,3R)-6-(4-ethylpiperazin-1-yl)-3-methyl-2-(methylamino)hexanoyl]-cyclosporin (peptide)
4.3	3-[D-Ala]-4-[(2S,3R)-6-(4-methoxypiperidin-1-yl)-3-methyl-2-(methylamino)hexanoyl]-cyclosporin (peptide)
1.9	3-[D-Ala]-4-[(2S,3R)-6-(8-oxa-3-azabicyclo[3.2.1]octan-3-yl)-3-methyl-2-(methylamino)-6-oxohexanoyl]-cyclosporin (peptide)
2.2	3-[D-Ala]-4-[(2S,3R)-6-hydroxy-3,6-dimethyl-2-(methylamino)heptanoyl]-cyclosporin (peptide)
9.4	3-[D-Ala]-4-[(2S,3S)-3-methyl-2-(methylamino)-4-(2-(4-methylpiperazin-1-yl)-2-oxoethoxy)butanoyl]-cyclosporin (peptide)
8.7	3-[D-Ala]-4-[(2S,3S)-3-methyl-2-(methylamino)-4-(2-((4-methylpiperazine-1-carbonyl)oxy)ethoxy)butanoyl]-cyclosporin (peptide)
4.8	3-[D-Ala]-4-[(2S,3S)-3-methyl-2-(methylamino)-4-(2-((S)-3-methylmorpholino)ethoxy)butanoyl]-cyclosporin (peptide)
7.6	3-[D-Ala]-4-[(2S,3S)-3-methyl-2-(methylamino)-4-(2-morpholinoethoxy)butanoyl]-cyclosporin (peptide)
6.9	3-[D-Ala]-4-[(2S,3S)-3-methyl-2-(methylamino)-4-(2-oxo-2-(piperazin-1-yl)ethoxy)butanoyl]-cyclosporin (peptide)
1.9	3-[D-Ala]-4-[(2S,3S)-3-methyl-2-(methylamino)-4-(((S)-tetrahydrofuran-3-yl)oxy)butanoyl]-cyclobsporin (peptide)
1.4	3-[D-Ala]-4-[(2S,3S)-3-methyl-2-(methylamino)-4-((S)-3-oxotetrahydro-1H-oxazolo[3,4-a]pyrazin-7(3H)-yl)butanoyl]-cyclosporin (peptide)
2.3	3-[D-Ala]-4-[(2S,3S)-3-methyl-2-(methylamino)-4-((morpholine-4-carbonyl)oxy)butanoyl]-cyclosporin (peptide)
1.9	3-[D-Ala]-4-[(2S,3S)-3-methyl-4-(2-(methyl(2,2,2-trifluoroethyl)amino)ethoxy)-2-(methylamino)butanoyl]-cyclosporin (peptide)
3.5	3-[D-Ala]-4-[(2S,3S)-4-(2-(4-cyclohexylpiperazin-1-yl)-2-oxoethoxy)-3-methyl-2-(methylamino)butanoyl]-cyclosporin (peptide)

OATP1B13 IC50 [µM]	Substance
8	3-[D-Ala]-4-[(2S,3S)-4-(2-(4-isopropylpiperazin-1-yl)-2-oxoethoxy)-3-methyl-2-(methylamino)butanoyl]-cyclosporin (peptide)
4.4	3-[D-Ala]-4-[(2S,3S)-4-(2-(4-isopropylpiperazin-1-yl)ethoxy)-3-methyl-2-(methylamino)butanoyl]-cyclosporin (peptide)
3.6	3-[D-Ala]-4-[(2S,3S)-4-(2-((2R,5R)-2,5-dimethylmorpholino)ethoxy)-3-methyl-2-(methylamino)butanoyl]-cyclosporin (peptide)
5	3-[D-Ala]-4-[(2S,3S)-4-(2-((S)-3-methoxypyrrolidin-1-yl)ethoxy)-3-methyl-2-(methylamino)butanoyl]-cyclosporin (peptide)
1.9	3-[D-Ala]-4-[(2S,3S)-4-((4-ethylpiperazine-1-carbonyl)oxy)-3-methyl-2-(methylamino)butanoyl]-cyclosporin (peptide)
4.3	3-[D-Ala]-4-[(2S,3S)-4-(((S)-4-isopropylmorpholin-2-yl)methoxy)-3-methyl-2-(methylamino)butanoyl]-cyclosporin (peptide)
3.6	3-[D-Ala]-4-[(2S,3S)-4-hydroxy-3-methyl-2-(methylamino)butanoyl]-cyclosporin (peptide)
2.6	3-[D-Ala]-4-[(S)-4-methoxy-3-(methoxymethyl)-2-(methylamino)butanoyl]-cyclosporin (peptide)
1.17	3-[D-Ala]-4[(2S,3R)-2-Amino-3-methyl-4-(4-oxetan-3-yl-piperazin-1-yl)]-butanoyl]-cyclosporin (peptide)
5.2	3-[D-Ala]-4[(2S,3R)-2-Amino-4-(4-cyclobutyl-piperazin-1-yl)-butanoyl]-cyclosporin (peptide)
4.56	3-[D-Ala]-4[(2S,3R)-2-Amino-4-(4-ethyl-piperazin-1-yl)-butanoyl]-cyclosporin (peptide)
2.44	3-[D-Ala]-4[(2S,3R)-2-Amino-4-(4-isopropyl-piperazin-1-yl)-butanoyl]-cyclosporin (peptide)
6.1	3-[D-Ala]-4[(2S,3R)-2-Amino-4-[4-(2-methoxy-ethyl)-piperazin-1-yl]-3-methyl-butanoyl]-cyclosporin (peptide)
1.8	3-[D-Ala]-4[(2S,3S)-2-Amino-3-methyl-4-(4-oxetan-3-yl-piperazin-1-yl)-butanoyl]-cyclosporin (peptide)
3.6	3-[D-Ala]-4[(2S,3S)-2-Amino-3-methyl-4-morpholin-4-yl-butanoyl]-cyclosporin (peptide)
4	3-[D-Ala]-4[(2S,3S)-2-Amino-4-(4-cyclobutyl-piperazin-1-yl)-3-methyl-butanoyl]-cyclosporin (peptide)
5.1	3-[D-Ala]-4[(2S,3S)-2-Amino-4-(4-ethyl-piperazin-1-yl)-3-methyl-butanoyl]-cyclosporin (peptide)
3.2	3-[D-Ala]-4[(2S,3S)-2-Amino-4-[4-(2-methoxy-ethyl)-piperazin-1-yl]-3-methyl-butanoyl]-cyclosporin (peptide)
0.4	3-[D-Ala]-4[(2S,3S)-3-methyl-2-(methylamino)-4-(4-(methylsulfonyl)piperazin-1-yl)butanoyl]-cyclosporin (peptide)

Molecular target: multidrug resistance associated protein 2 (human) (UniProt Q92887)
Sequence (Q92887 whole entry): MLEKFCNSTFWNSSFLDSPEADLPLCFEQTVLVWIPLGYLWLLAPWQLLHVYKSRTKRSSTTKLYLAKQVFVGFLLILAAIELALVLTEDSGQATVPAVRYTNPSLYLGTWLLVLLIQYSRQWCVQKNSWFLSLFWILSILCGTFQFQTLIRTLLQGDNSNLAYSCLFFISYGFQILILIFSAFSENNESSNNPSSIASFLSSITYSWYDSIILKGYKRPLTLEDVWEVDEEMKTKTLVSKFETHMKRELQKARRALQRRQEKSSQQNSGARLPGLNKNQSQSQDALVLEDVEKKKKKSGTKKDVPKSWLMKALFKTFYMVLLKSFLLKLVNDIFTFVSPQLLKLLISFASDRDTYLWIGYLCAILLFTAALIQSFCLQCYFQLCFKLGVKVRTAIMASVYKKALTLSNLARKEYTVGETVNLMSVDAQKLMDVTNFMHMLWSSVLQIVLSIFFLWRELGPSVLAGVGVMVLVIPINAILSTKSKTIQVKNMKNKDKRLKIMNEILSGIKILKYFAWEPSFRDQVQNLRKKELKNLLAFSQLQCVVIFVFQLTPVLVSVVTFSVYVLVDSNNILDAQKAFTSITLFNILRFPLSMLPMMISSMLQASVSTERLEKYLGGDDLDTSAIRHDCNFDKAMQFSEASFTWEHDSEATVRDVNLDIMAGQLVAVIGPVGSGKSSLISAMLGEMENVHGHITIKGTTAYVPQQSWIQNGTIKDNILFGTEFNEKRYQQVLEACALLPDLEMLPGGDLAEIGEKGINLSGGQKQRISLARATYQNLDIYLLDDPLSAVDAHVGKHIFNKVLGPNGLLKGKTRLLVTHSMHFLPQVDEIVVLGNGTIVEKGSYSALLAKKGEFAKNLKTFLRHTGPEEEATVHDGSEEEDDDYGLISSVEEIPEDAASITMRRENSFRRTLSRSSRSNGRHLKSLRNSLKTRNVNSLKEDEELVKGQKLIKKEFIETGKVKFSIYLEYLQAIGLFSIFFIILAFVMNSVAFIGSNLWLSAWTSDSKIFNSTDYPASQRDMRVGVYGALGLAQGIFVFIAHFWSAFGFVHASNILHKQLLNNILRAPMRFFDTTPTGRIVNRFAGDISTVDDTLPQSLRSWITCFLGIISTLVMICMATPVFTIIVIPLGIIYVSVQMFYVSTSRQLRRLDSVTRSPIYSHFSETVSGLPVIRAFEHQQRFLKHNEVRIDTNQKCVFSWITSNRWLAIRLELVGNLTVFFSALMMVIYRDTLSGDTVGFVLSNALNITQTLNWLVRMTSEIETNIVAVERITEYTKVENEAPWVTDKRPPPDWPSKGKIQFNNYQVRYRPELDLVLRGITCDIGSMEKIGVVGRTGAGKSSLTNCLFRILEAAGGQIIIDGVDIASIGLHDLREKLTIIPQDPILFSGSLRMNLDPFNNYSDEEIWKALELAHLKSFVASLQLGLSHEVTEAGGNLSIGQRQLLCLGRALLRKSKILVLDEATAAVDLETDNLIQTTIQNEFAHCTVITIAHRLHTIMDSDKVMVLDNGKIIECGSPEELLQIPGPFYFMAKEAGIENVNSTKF
Assay: cell-based or functional assay

MRP2 IC50 [µM]	Substance
13	3-[D-Ala]-4-[(2S,3R)-3-methyl-2-(methylamino)-4-(4-(methylsulfonyl)piperazin-1-yl)butanoyl]-cyclosporin (peptide)
18	3-[D-Ala]-4-[(2S,3R)-3-methyl-2-(methylamino)-4-morpholinobutanoyl]-cyclosporin (peptide)
13	3-[D-Ala]-4-[(2S,3R)-5-methoxy-3-methyl-2-(methylamino)pentanoyl]-cyclosporin (peptide)
30	3-[D-Ala]-4-[(2S,3S)-3-methyl-2-(methylamino)-4-(2-((4-methylpiperazine-1-carbonyl)oxy)ethoxy)butanoyl]-cyclosporin (peptide)
23	3-[D-Ala]-4-[(2S,3S)-3-methyl-2-(methylamino)-4-(2-morpholinoethoxy)butanoyl]-cyclosporin (peptide)
